Assays:
LY75 = target: T1, LY75 (Homo sapiens, UniProt O60449); experiment: Immunohistochemistry using monoclonal antibody to LY75; settings: FFPE Triple Negative breast cancer samples
T1 construct: from tissue; host or cells: FFPE triple negative breast cancer sections
Description: FFPE slides were deparaffinised in xylene (2×3 minutes) then rehydrated through 1:1 xylene: 100% ethanol (1×3 minutes), 100% ethanol (2×3 minutes), 95% ethanol (1×3 minutes), 70% ethanol (1×3 minutes), 50% ethanol (1×3 minutes), and tap water (1×3 minutes).
The LY75 antigen was retrieved using microwave heat, high power until boiling then low power for 10 minutes in 50 mL 1× citrate buffer in a Coplin jar. Slides were then left to cool to room temperature for a further 15 min, then washed in tap water, 3 minutes. Circles were drawn around each tissue section/TMA with a hydrophobic barrier pen and slides were then washed 3 times in PBS, 3 minutes each wash.
The primary anti-LY75 antibody was diluted in serum free protein block (SFPB) to obtain a solution with a concentration 20-fold greater than the final desired concentration (20 μg/mL for 1 μg/mL final). The secondary antibody, goat anti-human immunoglobulin G (IgG) antigen-binding fragment (Fab), was prepared similarly in SFPB to create a solution of equal concentration.
Equal volumes of primary and secondary antibodies were combined in a labelled tube, gently mixed, and incubated for 3 minutes at room temperature, resulting in a primary antibody concentration 10-fold greater than the desired final concentration (10 μg/mL for 1 μg/mL final). […]

[1] = tested on: Contiguous 8mer peptides of LY75 protein; experiment: Peptide microarray epitope characterization; format: binding; settings: 1 μg/mL LY75_A1, scale 1-65535
Description: The peptide microarray analysis was performed by LC Sciences, Houston TX, in brief the method comprised the following steps:—Contiguous 8mer peptides of LY75 protein having one amino acid overlap spanning residues 216 to 1666 of the full length LY75 protein were synthesized and immobilized on a microarray chip. The chip comprised three panels such that the experiment was performed in triplicate. The microarray was addressed with LY75_A1 to identify the peptides to which the antibody bound. The binding assay was performed under the following conditions:—
The microarray comprising the contiguous peptides in triplicate was washed with 1 mL of binding buffer at 4° C. for 20 min. It was then incubated with 1 μg/mL LY75_A1 in binding buffer (pH 7.0) at 4° C. for 2 hrs. The array was again washed with 0.5 mL of washing buffer at 4° C. for 30 min then incubated with 25 ng/ml anti-human IgG Alexa 647 conjugate in binding buffer (pH 7.0) at 4° C. for 1 hr. The array was again washed with 0.5 mL of washing buffer at 4° C. for 30 min. The array was then Scanned at 635 nm and PMT 500 and the signal Intensity was recorded. The peptide was classed as detectable if it was present in at least ⅔ legal duplicates. The average signal intensity of the replicates was reported as the final signal intensity. Results

LY75 on COLO205 cells = target: T2, LY75 on COLO205 cells (Homo sapiens, UniProt O60449); experiment: Competitive FACS binding analysis; settings: blocking antibody from 250 nM, 3 fold serial dilution, conjugate 1 nM (FIG. 5b)
T2 construct: COLO205 cells (ATCC, catalog #CCL-222) were detached from tissue culture flasks; host or cells: COLO205
Description: COLO205 cells (ATCC, catalog #CCL-222) were detached from tissue culture flasks with Cell Stripper (Cellgro, catalog #MT-25-056CI). Cells were washed and resuspended in FACS buffer (PBS+2% FBS), neutralized with growth media, and counted. Cells were plated at 50,000 cells per well in a V Bottom 96-well plate. Cells were washed once with FACS buffer (PBS (Fisher, catalog #SH30028-03)+2% FBS). An anti-LY75-mAb (Selected from Example 1) or LY75_A1 was added to wells starting at 250 nM and diluted serially 3 fold and applied to the relevant wells for 45 minutes on ice. Test wells that required single or multiple staining steps were left in FACS buffer as appropriate to ensure the final staining was completed simultaneously for all conditions tested. Two wells were left unstained in FACS buffer as controls.
After the incubation with blocking antibody, cells were washed twice in FACS buffer. The cells were resuspended in FACS buffer containing the anti-LY75-mAb conjugated to MCC-DM1 (1 nM) and incubated on ice for 45 minutes. The cells were washed as above and resuspended in FACS buffer plus 1 ug/ml mouse anti-maytansine antibody and incubated in ice for 45 minutes. […] Mean fluorescence intensity of each sample was determined using a Guava EasyCyte Plus HT Flow Cytometer (96 well plate formats) and the raw data was analyzed using the Guava Cytosoft.

T1 sequence (O60449 28-1722): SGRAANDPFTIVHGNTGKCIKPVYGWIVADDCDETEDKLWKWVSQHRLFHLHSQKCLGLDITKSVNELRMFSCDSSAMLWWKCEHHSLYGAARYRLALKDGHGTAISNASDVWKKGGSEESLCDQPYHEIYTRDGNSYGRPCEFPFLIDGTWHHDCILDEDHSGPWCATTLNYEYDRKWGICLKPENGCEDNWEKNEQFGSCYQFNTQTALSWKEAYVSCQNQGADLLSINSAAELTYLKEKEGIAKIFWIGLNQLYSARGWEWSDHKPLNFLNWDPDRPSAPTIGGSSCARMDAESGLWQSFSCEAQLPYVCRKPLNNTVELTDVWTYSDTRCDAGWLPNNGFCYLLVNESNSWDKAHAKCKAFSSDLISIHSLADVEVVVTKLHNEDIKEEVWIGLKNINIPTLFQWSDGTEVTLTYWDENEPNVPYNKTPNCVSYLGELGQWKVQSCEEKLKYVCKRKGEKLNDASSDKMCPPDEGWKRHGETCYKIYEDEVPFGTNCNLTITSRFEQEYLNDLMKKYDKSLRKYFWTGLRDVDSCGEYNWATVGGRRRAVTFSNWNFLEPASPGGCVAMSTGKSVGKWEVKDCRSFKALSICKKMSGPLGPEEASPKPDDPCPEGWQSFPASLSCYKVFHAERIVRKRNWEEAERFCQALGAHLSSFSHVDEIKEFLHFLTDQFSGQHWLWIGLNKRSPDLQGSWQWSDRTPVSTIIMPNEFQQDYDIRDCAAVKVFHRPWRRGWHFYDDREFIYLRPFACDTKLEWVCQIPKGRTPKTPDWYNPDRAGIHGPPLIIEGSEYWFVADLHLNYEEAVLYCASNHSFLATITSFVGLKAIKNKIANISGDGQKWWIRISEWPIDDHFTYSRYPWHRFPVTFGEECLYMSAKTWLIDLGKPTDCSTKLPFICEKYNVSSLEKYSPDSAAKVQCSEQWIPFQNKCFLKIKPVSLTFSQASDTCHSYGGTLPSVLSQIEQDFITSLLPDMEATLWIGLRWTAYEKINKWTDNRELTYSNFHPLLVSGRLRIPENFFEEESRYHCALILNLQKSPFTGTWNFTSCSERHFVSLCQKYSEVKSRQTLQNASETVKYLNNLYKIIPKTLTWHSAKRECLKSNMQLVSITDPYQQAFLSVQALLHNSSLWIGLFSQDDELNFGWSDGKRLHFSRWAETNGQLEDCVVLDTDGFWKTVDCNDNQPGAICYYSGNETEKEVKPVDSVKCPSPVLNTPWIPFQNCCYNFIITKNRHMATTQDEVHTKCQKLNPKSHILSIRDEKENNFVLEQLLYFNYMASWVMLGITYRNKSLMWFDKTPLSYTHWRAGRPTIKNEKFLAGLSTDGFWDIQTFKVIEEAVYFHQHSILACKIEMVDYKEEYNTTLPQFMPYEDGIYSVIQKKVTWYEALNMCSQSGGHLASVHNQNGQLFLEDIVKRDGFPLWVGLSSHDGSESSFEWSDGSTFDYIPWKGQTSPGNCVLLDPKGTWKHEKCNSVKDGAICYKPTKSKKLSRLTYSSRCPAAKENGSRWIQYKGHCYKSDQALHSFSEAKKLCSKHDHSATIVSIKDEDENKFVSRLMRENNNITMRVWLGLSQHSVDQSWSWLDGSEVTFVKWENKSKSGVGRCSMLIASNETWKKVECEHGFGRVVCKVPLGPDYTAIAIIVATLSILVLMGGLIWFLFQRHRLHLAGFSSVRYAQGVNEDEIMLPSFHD
T2 sequence (O60449 28-1722): as above

- sections exhibiting robust (+++) staining (LY75): 55%
- sections showing positive staining (LY75): 77%
- maximum signal seen for binding ([1]; background cut off 3000): 25000
B1: LY75_A1: anti-LY75 human monoclonal antibody; VH SEQ ID NO:1, VL SEQ ID NO:2 (antibody, listed as Homo sapiens, V domains shown)
VH: EVQLVESGGGLVKPGGSLRLSCAASGFTYSNAWMSWVRQAPGKGLEWVGRIKSKTDGGTTDYAAPVQGRFTISRDDSKNTLYLQMNSLKTEDTAVYYCTIFGVVSFDYWGQGTLVTVSS
VL: DVQMTQSPSSLSASVGDRVTITCRASQSISDYLSWYQQRPGKAPNLLIYAASNLKTGVPSRFSGSGSGTDFTLTISTLQPEDFATYYCQQSYRSPWTFGQGTKVEIKR
- average signal for all spots on the array [1]: about 885
- blocking of binding of anti-LY75-mAb-MCC-DM1 (LY75 on COLO205 cells): unable to block binding of anti-LY75-mAb-MCC-DM1

From patent publication US12668636B2, “Pharmaceutical combinations” (BERLIN-CHEMIE AG, priority 2017, dated 2026)
